This note sets out measurements from patent US20250346685A1.

Usually Kd stands for the free concentration of one partner at which half of the binding sites on the other are occupied at equilibrium, for simple one-to-one binding. A higher Kd goes with lower affinity.

One assay has as its target FcgRI (UniProt P12314). The assay is described as follows: SPR.
In assay [1] the target is human CD3 on T cells (Jurkat cells; human peripheral blood CD4+ and CD8+ T-cells) (human) (UniProt P07766). Description: flow cytometry on Jurkat cells.

Sequence of FcgRI (P12314 16-288): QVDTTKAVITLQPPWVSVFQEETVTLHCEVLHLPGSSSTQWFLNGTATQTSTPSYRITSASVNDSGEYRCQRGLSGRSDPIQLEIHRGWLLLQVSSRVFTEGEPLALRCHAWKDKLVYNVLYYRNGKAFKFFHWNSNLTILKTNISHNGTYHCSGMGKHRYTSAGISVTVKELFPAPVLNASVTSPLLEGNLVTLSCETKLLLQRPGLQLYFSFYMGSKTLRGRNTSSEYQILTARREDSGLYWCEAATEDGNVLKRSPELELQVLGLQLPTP

In the assay with FcgRI, KLH-hIgG4 displayed a Kd of 8.78 nM. In turn, OKT3-hIgG1 (antibody) showed an affinity (FACS) in assay [1] of 0.27 nM.
